# In publication PMC7072198, “An Epitope on EGFR Loading Catastrophic Internalization Serve as a Novel Oncotarget for Hepatocellular Carcinoma Therapy” (Cancers, 2020):
# Biological target: T1, EGFR extracellular domain (ECD), wild type (human, UniProt P00533 25-645)
# T1 construct: Epidermal growth factor receptor, human, extracellular domain; The Biacore legend and methods say only 'recombinant human EGFR' / 'EGFR protein'; also called EGFR ECD; EGFR ectodomain
# Experiment: ITC; MicroCal VP-ITC; nineteen 3 μL aliquots of 400 μM rLZ-8 injected into 20 μM EGFR ectodomain; single site binding model
# Conditions: both partners purified
binder,measurement,value
"recombinant Lingzhi-8 (rLZ-8), wild type (natural protein, Ganoderma lucidum, UniProt P14945 1-111, looked up, Lingzhi-8 (LZ-8) from Ganoderma lucidum, codon-optimised synthetic gene; Fluorescently labelled (red/green) in the cell experiments; also called rLZ-8^wt; source: Pichia pastoris X33 (pGAPZα A vector), culture supernatant, purified) MSDTALIFRLAWDVKKLSFDYTPNWGRGNPNNFIDTVTFPKVLTDKAYTYRVAVSGRNLGVKPSYAVESDGSQKVNFLEYNSGYGIADTNTIQVFVVDPDTNNDFIIAQWN",stoichiometry N,2 rLZ-8 per EGFR ECD
